Assay results: paper PMC5250619

What was measured:
Assay in all cases: BLI
[1] = biological target: CAP256-VRC26.03 Fab (human)
[2] = biological target: CAP256-VRC26.01 Fab (human)
[3] = biological target: CAP256-VRC26.10 Fab (human)

Substance: BG505.SOSIP.664 soluble HIV-1 Env trimer (from UniProt Q2N0S6 1-860) (complex)
- Kd [1]: 64 nM
- koff [1]: 0.0041 s⁻¹
- kon [1]: 63000 M⁻¹ s⁻¹
- Kd [2]: 680 nM
- koff [2]: 0.0071 s⁻¹
- Kd [3]: 84 nM
- koff [3]: 0.0045 s⁻¹
- kon [3]: 54000 M⁻¹ s⁻¹
